Test results published in publication doi:10.1101/2021.07.28.453719.

Key:
Assay in all cases: ITC
[1] = target: second bromodomain (BD2) of BRD4 (human)
[2] = target: BRD2-L108AzF mutant (photo-responsive bromodomain analogue) (human)
[3] = target: BRD3-L68AzF mutant (photo-responsive bromodomain analogue) (human) (UniProt Q15059)
[4] = target: BRDT-L61AzF mutant (photo-responsive bromodomain analogue) (human)
[5] = target: first bromodomain (BD1) of BRD2, wild type (human)
[6] = target: first bromodomain (BD1) of BRDT, wild type (human)

Substance	Kd [1] [µM]	Kd [2] [µM]	Kd [3] [µM]	Kd [4] [µM]	Kd [5] [µM]	Kd [6] [µM]
diacetylated ILF3 peptide 10 (AKacGLLLKacG)	33	–	–	–	–	–
tetra-acetylated histone H4 peptide (H4Kac4) 2 (from UniProt P62805 2-22)	–	93.5	14.2	13.5	27.8	13.7
ILF3 variant peptide AKacGALLKacG (aa 99-106) 15 carrying L102A	57	–	–	–	–	–
